Measurements from the supplement of paper PMC12855868.

B1: library; numbered along this chain (parent)
chain: MAAAGGARLLRAASAVLGGPAGRWLHHAGSRAGSSGLLRNRGPGGSAEASRSLSVSARARSSSEDKITVHFINRDGETLTTKGKVGDSLLDVVVENNLDIDGFGACEGTLACSTCHLIFEDHIYEKLDAITDEENDMLDLAYGLTDRSRLGCQICLTKSMDNMTVRVPETVADARQSIDVGKTS

Variants of: B1
Experiment: scaled log2 fold change in cell abundance, elesclomol vs control (0 = silent mean, 1 = nonsense mean) (scaled log2 ratio); higher = higher viability under elesclomol (loss of FDX1 cuproptosis function)
Settings: glucose 10 mM
Protocol: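 Deep mutational scan of full-length human FDX1: a pooled saturation-mutagenesis ORF library (every residue 2-184 mutated to all 19 amino acids plus stop, and silent codons where available) was expressed by lentivirus in FDX1-knockout ABC1 (14 days) or HEK293T (11 days) cells grown with elesclomol (ES) or DMSO control. Variant abundance came from ORF sequencing. The log2 fold change (ES vs control, mean of duplicates) was centred on the silent-variant mean (0) and scaled to the nonsense-variant mean (1). Higher values mean greater viability under ES, i.e. loss of FDX1 function in cuproptosis.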

[1] = with ABC1 FDX1 KO, elesclomol 5 nM, 14 days
[2] = with HEK293T FDX1 KO, elesclomol 40 nM, 11 days
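Further: variant abundance is its share of total variant reads in each endpoint sample, from next-generation sequencing of the integrated ORF PCR-amplified out of genomic DNA.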

Variant	scaled log2 fold change [1]	scaled log2 fold change [2]
A32Y	0.0969	0.822
A32T	-0.266	
A32W	-0.684	
A32P	0.626	
A32V	-0.114	
A32Q	0.0849	-0.338
A32S	0.0206	-0.496
A32R	0.589	1.44
A32I	0.101	0.722
A32H	-0.58	-0.0637
A32N	-0.064	-0.0431
L37Q	-0.0502	-0.659
L37D	-0.0765	-0.369
L37V	0.412	
L37M	0.0458	0.0807
L37W	0.235	-0.0987
L37H	-0.125	-0.331
L37F	0.0336	0.00175
L37K	0.0656	-0.805
L37T	0.382	0.567
L37Y	0.353	0.0859
L37P	0.51	1.09
L37C	-0.0306	
L37R	-0.0271	0.0954

Variant	scaled log2 fold change [1]	scaled log2 fold change [2]
L37E	-0.0101	-0.121
L37S	0.557	-0.131
L37G	0.613	-0.248
R39D	-0.217	1.07
R39T	-0.117	0.0293
R39C	-0.483	0.689
R39V	0.374	-0.208
R39G	0.577	0.061
R39H	0.0443	-0.509
R39I	-0.111	0.989
R39F	0.0891	-0.0588
R39M	0.188	0.344
R39A	0.0642	-0.565
R39Q	-0.432	0.178
R39L	-0.142	-0.141
R39E	-0.217	0.936
R39P	-0.972	-0.296
R39Y	0.0455	-0.31
R39K	-0.687	-0.451
R39N	-0.39	-0.278
R39W	0.0801	0.13
R39S	0.489	0.0758
L38P	-0.12	0.667
L38G	-0.74	

Variant	scaled log2 fold change [1]	scaled log2 fold change [2]
L38E	0.019	0.931
L38R	0.333	1.23
L38S	-0.172	-0.0978
L38V	-0.109	
L38D	0.132	-0.187
L38W	-0.0179	
L38H	0.153	0.35
L38Y	-0.0523	-0.184
L38K	-0.0234	0.601
L38Q	-0.878	-0.206
L38N	0.377	0.121
L38C	-0.631	0.0841
L38A	-0.113	
L38M	0.492	1.02
L38F	0.294	0.135
L38I	-0.615	0.0108
L38T	0.403	0.953
G45C	0.409	-0.145
G45A	0.315	-0.00746
G45F	-0.17	-0.167
G45E	0.346	1.07
G45H	0.0762	0.865
G45D	-0.348	0.907
G44I	0.034	0.323

Variant	scaled log2 fold change [1]	scaled log2 fold change [2]
G44L	-0.1	0.155
G44H	-0.319	
G44M	0.13	0.703
G44Q	0.137	0.433
G44K	0.187	-0.0828
G44A	0.246	2.06
G44T	-0.238	0.0578
G44R	0.286	0.0773
G44F	-0.255	-0.00392
G44D	-0.0132	-0.461
G44W	0.253	0.857
G44Y	0.198	-0.79
G44V	-0.00617	-0.478
G44P	-0.094	0.309
G44S	0.141	-0.291
G44N	0.0836	-0.289
G44C	-0.366	0.858
G44E	0.197	1.12
G36Y	0.0493	-0.0699
G36L	0.19	0.873
G36W	-0.615	1.33
G36H	0.443	-1.19
G36F	-0.16	-0.239
G36M	0.149	-0.00494

Variant	scaled log2 fold change [1]	scaled log2 fold change [2]
G36V	-0.491	-0.262
G36I	0.0053	-0.456
G36Q	-0.138	0.311
G36T	0.266	0.704
G36R	-0.252	0.0429
G36D	-0.0689	0.737
G36E	0.292	0.257
G36C	-0.121	0.501
G36N	0.0293	0.187
G36K	-0.118	-0.253
G36S	0.168	-0.0207
R41K	0.264	-0.114
R41Y	-0.195	-0.051
R41E	0.0687	-0.798
R41L	0.167	0.278
R41F	0.347	-0.469
R41I	-0.144	0.109
R41D	0.137	-0.209
R41N	0.199	-0.371
R41Q	-0.31	0.698
R41C	-0.0654	-0.255
R41W	0.107	0.227
R41G	-0.751	0.252
R41H	0.145	-0.535
